According to US20190194304A1 (STICHTING SANQUIN BLOEDVOORZIENING, published 2019):

B3: human factor H (other, UniProt P08603 19-1231, looked up)
chain: EDCNELPPRRNTEILTGSWSDQTYPEGTQAIYKCRPGYRSLGNVIMVCRKGEWVALNPLRKCQKRPCGHPGDTPFGTFTLTGGNVFEYGVKAVYTCNEGYQLLGEINYRECDTDGWTNDIPICEVVKCLPVTAPENGKIVSSAMEPDREYHFGQAVRFVCNSGYKIEGDEEMHCSDDGFWSKEKPKCVEISCKSPDVINGSPISQKIIYKENERFQYKCNMGYEYSERGDAVCTESGWRPLPSCEEKSCDNPYIPNGDYSPLRIKHRTGDEITYQCRNGFYPATRGNTAKCTSTGWIPAPRCTLKPCDYPDIKHGGLYHENMRRPYFPVAVGKYYSYYCDEHFETPSGSYWDHIHCTQDGWSPAVPCLRKCYFPYLENGYNQNYGRKFVQGKSIDVACHPGYALPKAQTTVTCMENGWSPTPRCIRVKTCSKSSIDIENGFISESQYTYALKEKAKYQCKLGYVTADGETSGSITCGKDGWSAQPTCIKSCDIPVFMNARTKNDFTWFKLNDTLDYECHDGYESNTGSTTGSIVCGYNGWSDLPICYERECELPKIDVHLVPDRKKDQYKVGEVLKFSCKPGFTIVGPNSVQCYHFGLSPDLPICKEQVQSCGPPPELLNGNVKEKTKEEYGHSEVVEYYCNPRFLMKGPNKIQCVDGEWTTLPVCIVEESTCGDIPELEHGWAQLSSPPYYYGDSVEFNCSESFTMIGHRSITCIHGVWTQLPQCVAIDKLKKCKSSNLIILEEHLKNKKEFDHNSNIRYRCRGKEGWIHTVCINGRWDPEVNCSMAQIQLCPPPPQIPNSHNMTTTLNYRDGEKVSVLCQENYLIQEGEEITCKDGRWQSIPLCVEKIPCSQPPQIEHGTINSSRSSQESYAHGTKLSYTCEGGFRISEENETTCYMGKWSSPPQCEGLPCKSPPEISHGVVAHMSDSYQYGEEVTYKCFEGFGIDGPAIAKCLGEKWSHPPSCIKTDCLSLPSFENAIPMGEKKDVYKAGEQVTYTCATYYKMDGASNVTCINSRWTGRPTCRDTSCVNPPTVQNAYIVSRQMSKYPSGERVRYQCRSPYEMFGDEEVMCLNGNWTEPPQCKDSTGKCGPPPPIDNGDITSFPLSVYAPASSVEYQCQNLYQLEGNKRITCRNGQWSEPPKCLHPCVISREIMENYNIALRWTAKQKLYSRTGESVEFVCKRGYRLSSRSHTLRTTCWDGKLEYPTCAKR
notes: mature; Purified plasma FH (CompTech) in SPR, bridging ELISA and hybridoma screening (biotinylated); FH of healthy donor or aHUS patient serum in the C3b ELISA and the functional assays. aHUS sera carry a heterozygous mutation in CCP 20 that is not specified; also called FH; human purified factor H

Tests used:
recombinant FH CCP 18-20 = biological target: T1, recombinant FH CCP 18-20 (human, UniProt P08603 1046-1231, 125I label); experiment: radioimmunoassay, moAb on RM-19 sepharose, 125I-labelled fragment
T1 construct: domain: CCP 18-20; also called recombinant FH CCP domains 18-20
T1 sequence (looked up): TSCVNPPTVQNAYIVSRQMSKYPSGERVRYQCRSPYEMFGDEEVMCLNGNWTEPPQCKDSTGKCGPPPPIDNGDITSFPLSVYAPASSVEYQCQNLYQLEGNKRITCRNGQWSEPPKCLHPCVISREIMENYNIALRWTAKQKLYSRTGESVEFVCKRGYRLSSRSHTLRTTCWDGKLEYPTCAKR
Experimental: (§1) Reactivity of FH specific moAbs was tested with recombinant human FH fragments composed of multiple CCPs. To this end, fifty microliter of 100 μg/ml anti-FH moAbs was mixed with 0.5 ml of 2 mg/ml RM-19 coupled-sepharose (25 μg moAb per 1 mg CnBr-Sepharose). The FH fragments were labelled with ¹²⁵I and 100 μl (20000 c/30 sec) was added to each sample followed by incubation O/N. The assay was performed in PBS with 0.1% (w/v) Tween-20 and 0.1% (w/v) BSA (PTB). Samples were washed 5 times with PBS with 0.1% (w/v) Tween-20 and counted for 30 seconds. Sepharose bound radioactivity was measured and compared to total input (set to 100%).
(§2) In order to map the binding site of anti-FH.07, we tested the reactivity of this moAb towards a panel of radiolabeled recombinant CCP domains or purified human FH. Binding of the moAbs was tested in a radioimmunoassay and was related to the input (100%).

recombinant FH CCP 15-19 = biological target: T2, recombinant FH CCP 15-19 (human, UniProt P08603 868-1165, 125I label); experiment: as above
T2 construct: domain: CCP 15-19; also called recombinant FH CCP domains 15-19
T2 sequence (looked up): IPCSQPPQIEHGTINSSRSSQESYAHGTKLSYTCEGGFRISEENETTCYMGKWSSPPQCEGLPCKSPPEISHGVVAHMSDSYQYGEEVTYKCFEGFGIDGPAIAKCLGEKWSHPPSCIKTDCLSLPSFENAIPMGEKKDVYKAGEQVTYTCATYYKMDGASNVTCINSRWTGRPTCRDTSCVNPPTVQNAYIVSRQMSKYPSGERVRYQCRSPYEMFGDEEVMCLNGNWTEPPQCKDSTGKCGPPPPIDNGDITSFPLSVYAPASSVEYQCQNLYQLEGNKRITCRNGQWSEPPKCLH
Experimental: as §1, §2

recombinant FH CCP 15-18 = biological target: T3, recombinant FH CCP 15-18 (human, UniProt P08603 868-1104, 125I label); experiment: as above
T3 construct: domain: CCP 15-18; also called recombinant FH CCP domains 15-18
T3 sequence (looked up): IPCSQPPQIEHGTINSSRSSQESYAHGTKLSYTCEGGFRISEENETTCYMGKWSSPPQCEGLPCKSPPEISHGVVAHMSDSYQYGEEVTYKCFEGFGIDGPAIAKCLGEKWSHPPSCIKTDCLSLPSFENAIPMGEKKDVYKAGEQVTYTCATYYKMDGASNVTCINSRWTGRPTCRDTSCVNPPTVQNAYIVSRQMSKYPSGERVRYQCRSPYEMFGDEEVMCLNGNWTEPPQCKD
Experimental: as §1, §2

human factor H = biological target: B3; experiment: bridging ELISA: FH coat, biotinylated FH for detection
Experimental: One possible mechanism for the observed increased FH inhibitory function upon incubation with anti-FH.07 is multimerization of FH by crosslinking via the antibody, thereby increasing the avidity of FH for the surface. To test this possibility, we generated monovalent Fab′ fragments of anti-FH.07. If crosslinking of FH is the cause of the observed increased FH function, monovalent Fab′ fragments are expected to show no potentiating effect. With a bridging ELISA we first checked whether the generated Fab′ fragments were indeed completely monovalent and not capable to crosslink FH molecules. To this end an ELISA plate was coated with FH and biotinylated FH was used for detection. […] The anti-FH.07 F(ab′)₂ and Fab′ fragments were then tested in the C3 deposition assays on zymosan and LPS coated plates. To our surprise we observed the same potentiating effect of the Fab′ fragments on FH function. […] Therefore we concluded that the effect of anti-FH.07 was not due to crosslinking of FH molecules by the monoclonal antibody.

C3b [1] = biological target: T4, C3b (UniProt P01024 23-667; P01024 749-1663, limits assumed); experiment: SPR, 0.5 µM FH with anti-FH.07 Fab′ (2 to 1 molar ratio) over immobilised C3b
T4 construct: domain: C3b; C3b has two disulfide-linked chains (beta and alpha′); also called purified C3b
T4 sequence (P01024 23-667 limits assumed, chain 1 of 2): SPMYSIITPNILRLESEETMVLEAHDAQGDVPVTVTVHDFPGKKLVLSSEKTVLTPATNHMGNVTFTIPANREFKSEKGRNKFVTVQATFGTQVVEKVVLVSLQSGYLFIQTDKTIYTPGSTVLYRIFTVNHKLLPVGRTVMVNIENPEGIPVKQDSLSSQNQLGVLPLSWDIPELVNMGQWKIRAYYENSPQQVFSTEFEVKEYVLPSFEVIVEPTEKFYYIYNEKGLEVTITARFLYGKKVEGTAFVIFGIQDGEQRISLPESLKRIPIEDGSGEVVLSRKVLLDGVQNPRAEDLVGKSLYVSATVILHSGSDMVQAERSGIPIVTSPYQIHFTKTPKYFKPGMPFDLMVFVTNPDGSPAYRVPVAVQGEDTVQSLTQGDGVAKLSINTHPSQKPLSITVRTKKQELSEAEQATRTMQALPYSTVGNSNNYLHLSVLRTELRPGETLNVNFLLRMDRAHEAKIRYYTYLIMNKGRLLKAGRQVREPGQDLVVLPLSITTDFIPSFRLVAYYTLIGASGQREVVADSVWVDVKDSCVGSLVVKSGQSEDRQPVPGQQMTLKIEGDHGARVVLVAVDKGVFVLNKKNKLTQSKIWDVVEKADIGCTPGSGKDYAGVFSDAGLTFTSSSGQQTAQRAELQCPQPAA
T4 sequence (P01024 749-1663 limits assumed, chain 2 of 2): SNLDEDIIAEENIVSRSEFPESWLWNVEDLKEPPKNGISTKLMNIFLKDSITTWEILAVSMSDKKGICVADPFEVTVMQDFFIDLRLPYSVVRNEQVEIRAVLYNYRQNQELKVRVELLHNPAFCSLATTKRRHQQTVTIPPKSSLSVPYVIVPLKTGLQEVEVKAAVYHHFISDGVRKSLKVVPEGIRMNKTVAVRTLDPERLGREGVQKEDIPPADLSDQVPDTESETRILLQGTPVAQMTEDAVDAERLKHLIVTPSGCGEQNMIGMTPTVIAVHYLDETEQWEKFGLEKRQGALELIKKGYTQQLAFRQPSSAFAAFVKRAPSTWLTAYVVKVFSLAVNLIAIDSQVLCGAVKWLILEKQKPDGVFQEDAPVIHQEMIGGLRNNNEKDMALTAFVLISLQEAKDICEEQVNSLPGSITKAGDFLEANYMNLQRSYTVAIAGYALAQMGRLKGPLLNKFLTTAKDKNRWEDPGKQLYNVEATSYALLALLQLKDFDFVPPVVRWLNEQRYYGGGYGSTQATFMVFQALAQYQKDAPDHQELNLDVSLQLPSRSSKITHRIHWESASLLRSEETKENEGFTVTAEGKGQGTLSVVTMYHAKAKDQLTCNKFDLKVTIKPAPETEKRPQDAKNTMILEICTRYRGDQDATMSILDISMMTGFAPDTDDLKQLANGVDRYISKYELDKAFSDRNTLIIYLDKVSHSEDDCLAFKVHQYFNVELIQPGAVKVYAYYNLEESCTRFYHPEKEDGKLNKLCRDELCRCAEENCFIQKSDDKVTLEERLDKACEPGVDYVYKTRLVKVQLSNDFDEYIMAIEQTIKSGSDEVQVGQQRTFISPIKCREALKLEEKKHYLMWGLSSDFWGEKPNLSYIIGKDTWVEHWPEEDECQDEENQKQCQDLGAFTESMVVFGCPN
Experimental: (§3) Binding of FH to C3b, iC3b or C3d in the presence of the anti-FH moAbs was determined by surface plasmon resonance using a Biacore T3000 instrument (GE Healthcare, Little Chalfont, UK). Purified C3b, iC3b or C3d (Complement Technologies) was immobilized onto one of three flow cells of a CM5 Biacore Sensor Chip (GE Healthcare) using standard […] coupling. The remaining flow cell was used as reference surface and prepared by performing a coupling reaction without the addition of any protein. A response of 4400 response units (RUs), 4180 RUs and 1470 RUs was obtained after coupling with C3b, iC3b and C3d, respectively. SPR experiments were performed at 25° C. using a flow rate of 10 μl/min and in 10 mM HEPES-buffered 150 mM saline, pH 7.4, with 0.05% (w/v) Tween-20 (HBS-P). Duplicate injections of 0.5 μM FH with a contact time of 210 seconds were performed to obtain a reference binding signal for FH on each surface. […]
(§4) In addition, SPR experiments were conducted to study the interaction of FH with C3b, iC3b and C3d in the absence and presence of […] Fab′ fragments. Briefly, three flow cells of a CM5 Biacore Sensor chip were coated with either C3b, iC3b or C3d and interactions of FH with these surfaces in the absence or presence of anti-FH moAb was determined on a Biacore T3000 system.

iC3b = biological target: T5, iC3b (UniProt P01024 23-667; P01024 749-1303; P01024 1321-1663, limits assumed); experiment: SPR, 0.5 µM FH with anti-FH.07 Fab′ (2 to 1 molar ratio) over immobilised iC3b
T5 construct: domain: iC3b; also called purified iC3b
T5 sequence (P01024 23-667 limits assumed, chain 1 of 3): as the sequence (P01024 23-667 limits assumed, chain 1 of 2) above
T5 sequence (P01024 749-1303 limits assumed, chain 2 of 3): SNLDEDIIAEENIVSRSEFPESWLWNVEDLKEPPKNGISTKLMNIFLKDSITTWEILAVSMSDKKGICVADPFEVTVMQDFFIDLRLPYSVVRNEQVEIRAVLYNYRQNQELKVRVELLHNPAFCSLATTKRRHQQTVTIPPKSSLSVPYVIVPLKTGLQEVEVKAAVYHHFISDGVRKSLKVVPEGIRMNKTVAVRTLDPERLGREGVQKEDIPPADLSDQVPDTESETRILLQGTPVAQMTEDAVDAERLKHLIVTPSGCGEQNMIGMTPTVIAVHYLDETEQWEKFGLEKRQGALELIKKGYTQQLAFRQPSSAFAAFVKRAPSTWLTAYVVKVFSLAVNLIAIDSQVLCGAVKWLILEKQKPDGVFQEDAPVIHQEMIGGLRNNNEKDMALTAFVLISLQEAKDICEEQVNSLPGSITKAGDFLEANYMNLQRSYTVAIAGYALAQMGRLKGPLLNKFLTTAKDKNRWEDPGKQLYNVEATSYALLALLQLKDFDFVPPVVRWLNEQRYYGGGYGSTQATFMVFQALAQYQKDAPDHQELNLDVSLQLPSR
T5 sequence (P01024 1321-1663 limits assumed, chain 3 of 3): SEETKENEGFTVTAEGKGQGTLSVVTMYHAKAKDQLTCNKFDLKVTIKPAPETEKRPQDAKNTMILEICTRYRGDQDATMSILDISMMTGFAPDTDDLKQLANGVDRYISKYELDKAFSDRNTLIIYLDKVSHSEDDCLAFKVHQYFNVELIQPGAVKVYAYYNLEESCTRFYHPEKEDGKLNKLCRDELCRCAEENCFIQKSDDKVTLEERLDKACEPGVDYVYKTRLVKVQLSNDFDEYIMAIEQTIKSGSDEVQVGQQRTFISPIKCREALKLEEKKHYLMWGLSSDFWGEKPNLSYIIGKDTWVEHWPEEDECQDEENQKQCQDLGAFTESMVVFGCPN
Experimental: as §3, §4

C3b [2] = biological target: T4, C3b; experiment: SPR, Fab′ injected without FH over immobilised C3b
Experimental: Binding of FH to C3b, iC3b or C3d in the presence of the anti-FH moAbs was determined by surface plasmon resonance using a Biacore T3000 instrument (GE Healthcare, Little Chalfont, UK). Purified C3b, iC3b or C3d (Complement Technologies) was immobilized onto one of three flow cells of a CM5 Biacore Sensor Chip (GE Healthcare) using standard […] coupling. The remaining flow cell was used as reference surface and prepared by performing a coupling reaction without the addition of any protein. A response of 4400 response units (RUs), 4180 RUs and 1470 RUs was obtained after coupling with C3b, iC3b and C3d, respectively. SPR experiments were performed at 25° C. using a flow rate of 10 μl/min and in 10 mM HEPES-buffered 150 mM saline, pH 7.4, with 0.05% (w/v) Tween-20 (HBS-P). Duplicate injections of 0.5 μM FH with a contact time of 210 seconds were performed to obtain a reference binding signal for FH on each surface. After each sample injection a dissociation time of 240 seconds was allowed, using HBS-P as running buffer, followed by a single 30 seconds injection of 1 M NaCl to regenerate the surface.
To determine the effect of anti-FH.07 without interference of possible cross-linking via the moAb, Fab′ fragments, generated as described above, were used. […]

B1: monoclonal antibody anti-FH.07 (murine IgG1) (antibody, V domains shown)
VH: QVQLQQSGPGLVQPSQSLSITCTVSDFSLARYGVHWIRQSPGKGLEWLGVIWSGGTADYNAAFISRLNINKDNSKSQVFFKMNSLQANDTAIYYCARNFGNYAVDYWGQGTS
VL: QIVLSQSPTFLSASPGEKVTVTCRASSSVKYMHWYQQKPGASPKPWIFATSNLASGVPARFSGSGSGTSYSLTISRVEAEDAATYYCQQWSIIPPTFGNGTKLELK
notes: Captured with rat anti-mouse kappa RM19; also called intact IgG; intact antibody
binding result (recombinant FH CCP 18-20): binds | binding result (recombinant FH CCP 15-19): binds | binding result (recombinant FH CCP 15-18): binds | binding result (human factor H): binds

B2: F(ab′)2 fragments of anti-FH.07 (other)
VH: QVQLQQSGPGLVQPSQSLSITCTVSDFSLARYGVHWIRQSPGKGLEWLGVIWSGGTADYNAAFISRLNINKDNSKSQVFFKMNSLQANDTAIYYCARNFGNYAVDYWGQGTS
VL: QIVLSQSPTFLSASPGEKVTVTCRASSSVKYMHWYQQKPGASPKPWIFATSNLASGVPARFSGSGSGTSYSLTISRVEAEDAATYYCQQWSIIPPTFGNGTKLELK
notes: also called anti-FH.07 F(ab′)2
binding result (human factor H): binds

B3
fold increase of the measured interactions (RU) with anti-FH.07 Fab′ against FH alone (C3b [1]): ≥ 2 fold | fold increase of the measured interactions (RU) with anti-FH.07 Fab′ against FH alone (iC3b): ≥ 2 fold

B4: Fab′ fragments of anti-FH.07 (Fab, V domains shown)
VH: QVQLQQSGPGLVQPSQSLSITCTVSDFSLARYGVHWIRQSPGKGLEWLGVIWSGGTADYNAAFISRLNINKDNSKSQVFFKMNSLQANDTAIYYCARNFGNYAVDYWGQGTS
VL: QIVLSQSPTFLSASPGEKVTVTCRASSSVKYMHWYQQKPGASPKPWIFATSNLASGVPARFSGSGSGTSYSLTISRVEAEDAATYYCQQWSIIPPTFGNGTKLELK
modifications: free thiol groups blocked with iodoacetamide after reduction with dithioerythritol
notes: also called anti-FH.07 Fab′
binding result (C3b [2]): no binding
